According to US20170275666A1, “Methods for Preparing Rebaudioside I and Uses” (The Coca-Cola Company, priority 2014, published 2017):
Changes are numbered by the printed parent chain.

B1: UGT76G1var79: UGT76G1 variant, mutations E224D_T284I_V366I_I373L_K393G (protein, UniProt Q6VAB4 1-458, looked up, variant E224D T284I V366I I373L K393G)
UDP-glycosyltransferase 76G1: MENKTETTVRRRRRIILFPVPFQGHINPILQLANVLYSKGFSITIFHTNFNKPKTSNYPHFTFRFILDNDPQDERISNLPTHGPLAGMRIPIINEHGADELRRELELLMLASEEDEEVSCLITDALWYFAQSVADSLNLRRLVLMTSSLFNFHAHVSLPQFDELGYLDPDDKTRLEEQASGFPMLKVKDIKSAYSNWQILKEILGKMIKQTKASSGVIWNSFKDLEESELETVIREIPAPSFLIPLPKHLTASSSSLLDHDRTVFQWLDQQPPSSVLYVSFGSISEVDEKDFLEIARGLVDSKQSFLWVVRPGFVKGSTWVEPLPDGFLGERGRIVKWVPQQEVLAHGAIGAFWTHSGWNSTLESICEGVPMLFSDFGLDQPLNARYMSDVLGVGVYLENGWERGEIANAIRRVMVDEEGEYIRQNARVLKQKADVSLMKGGSSYESLESLVSYISSL
B2: UGT76G1var95: UGT76G1 variant, mutations A33G_I295M_K303G_I335V_A385T (protein, UniProt Q6VAB4 1-458, looked up, variant A33G I295M K303G I335V A385T)
UDP-glycosyltransferase 76G1: B1 UDP-glycosyltransferase 76G1 with A33G, D224E, I284T, I295M, K303G, I335V, I366V, L373I, A385T, G393K
B3: UGT76G1var6: UGT76G1 variant, mutations Q266S_S357N_I373L (protein, UniProt Q6VAB4 1-458, looked up, variant Q266S S357N I373L)
UDP-glycosyltransferase 76G1: B1 UDP-glycosyltransferase 76G1 with D224E, Q266S, I284T, S357N, I366V, G393K
B4: UGT76G1var87: UGT76G1 variant, mutations S241I_L243A_V300A_F314S_N409R (protein, UniProt Q6VAB4 1-458, looked up, variant S241I L243A V300A F314S N409R)
UDP-glycosyltransferase 76G1: B1 UDP-glycosyltransferase 76G1 with D224E, S241I, L243A, I284T, V300A, F314S, I366V, L373I, G393K, N409R
B5: UGT76G1var83: UGT76G1 variant, mutations I43V_Q342E_S357N_S375R_L379G (protein, UniProt Q6VAB4 1-458, looked up, variant I43V Q342E S357N S375R L379G)
UDP-glycosyltransferase 76G1: B1 UDP-glycosyltransferase 76G1 with I43V, D224E, I284T, Q342E, S357N, I366V, L373I, S375R, L379G, G393K
B6: UGT76G1var80: UGT76G1 variant, mutations L243P_L379A_S389E_Q425E_Q432E (protein, UniProt Q6VAB4 1-458, looked up, variant L243P L379A S389E Q425E Q432E)
UDP-glycosyltransferase 76G1: B1 UDP-glycosyltransferase 76G1 with D224E, L243P, I284T, I366V, L373I, L379A, S389E, G393K, Q425E, Q432E
B7: UGT76G1var81: UGT76G1 variant, mutations A33G_T263S_S274G_V279I_Y397E (protein, UniProt Q6VAB4 1-458, looked up, variant A33G T263S S274G V279I Y397E)
UDP-glycosyltransferase 76G1: B1 UDP-glycosyltransferase 76G1 with A33G, D224E, T263S, S274G, V279I, I284T, I366V, L373I, G393K, Y397E
B8: UGT76G1var7: UGT76G1 variant, mutations F22L_I43V_A239V (protein, UniProt Q6VAB4 1-458, looked up, variant F22L I43V A239V)
UDP-glycosyltransferase 76G1: B1 UDP-glycosyltransferase 76G1 with F22L, I43V, D224E, A239V, I284T, I366V, L373I, G393K
B9: UGT76G1var85: UGT76G1 variant, mutations T284L_G348P_F377C_P382M_N409R (protein, UniProt Q6VAB4 1-458, looked up, variant T284L G348P F377C P382M N409R)
UDP-glycosyltransferase 76G1: B1 UDP-glycosyltransferase 76G1 with D224E, I284L, G348P, I366V, L373I, F377C, P382M, G393K, N409R
B10: UGT76G1var82: UGT76G1 variant, mutations E224D_L243A_F265L_R334H_A352G (protein, UniProt Q6VAB4 1-458, looked up, variant E224D L243A F265L R334H A352G)
UDP-glycosyltransferase 76G1: B1 UDP-glycosyltransferase 76G1 with L243A, F265L, I284T, R334H, A352G, I366V, L373I, G393K
B11: UGT76G1var92: UGT76G1 variant, mutations K303G_S357N_V366I_V394I_I407V (protein, UniProt Q6VAB4 1-458, looked up, variant K303G S357N V366I V394I I407V)
UDP-glycosyltransferase 76G1: B1 UDP-glycosyltransferase 76G1 with D224E, I284T, K303G, S357N, L373I, G393K, V394I, I407V
B12: UGT76G1var93: UGT76G1 variant, mutations I43V_Q266E_S375M_S389E_V394I (protein, UniProt Q6VAB4 1-458, looked up, variant I43V Q266E S375M S389E V394I)
UDP-glycosyltransferase 76G1: B1 UDP-glycosyltransferase 76G1 with I43V, D224E, Q266E, I284T, I366V, L373I, S375M, S389E, G393K, V394I
B13: UGT76G1var86: UGT76G1 variant, mutations E224A_T284L_V396F_Y397E_I407V (protein, UniProt Q6VAB4 1-458, looked up, variant E224A T284L V396F Y397E I407V)
UDP-glycosyltransferase 76G1: B1 UDP-glycosyltransferase 76G1 with D224A, I284L, I366V, L373I, G393K, V396F, Y397E, I407V
B14: UGT76G1var91: UGT76G1 variant, mutations E224A_L246F_T263S_F265I_Q342K (protein, UniProt Q6VAB4 1-458, looked up, variant E224A L246F T263S F265I Q342K)
UDP-glycosyltransferase 76G1: B1 UDP-glycosyltransferase 76G1 with D224A, L246F, T263S, F265I, I284T, Q342K, I366V, L373I, G393K
B15: UGT76G1var84: UGT76G1 variant, mutations F22L_Q266S_F314S_A352G_S357C (protein, UniProt Q6VAB4 1-458, looked up, variant F22L Q266S F314S A352G S357C)
UDP-glycosyltransferase 76G1: B1 UDP-glycosyltransferase 76G1 with F22L, D224E, Q266S, I284T, F314S, A352G, S357C, I366V, L373I, G393K
B16: UGT76G1var96: UGT76G1 variant, mutations F22L_E229A_L243P_F377C_A385T (protein, UniProt Q6VAB4 1-458, looked up, variant F22L E229A L243P F377C A385T)
UDP-glycosyltransferase 76G1: B1 UDP-glycosyltransferase 76G1 with F22L, D224E, E229A, L243P, I284T, I366V, L373I, F377C, A385T, G393K
B17: UGT76G1var90: UGT76G1 variant, mutations E231A_S241I_S274G_Y397Q_Q425E (protein, UniProt Q6VAB4 1-458, looked up, variant E231A S241I S274G Y397Q Q425E)
UDP-glycosyltransferase 76G1: B1 UDP-glycosyltransferase 76G1 with D224E, E231A, S241I, S274G, I284T, I366V, L373I, G393K, Y397Q, Q425E
B18: UGT76G1var88: UGT76G1 variant, mutations A239V_T284I_V310I_Q342K_L379A (protein, UniProt Q6VAB4 1-458, looked up, variant A239V T284I V310I Q342K L379A)
UDP-glycosyltransferase 76G1: B1 UDP-glycosyltransferase 76G1 with D224E, A239V, V310I, Q342K, I366V, L373I, L379A, G393K
B19: UGT76G1var89: UGT76G1 variant, mutations F41L_E229A_E231A_F265L_P272A (protein, UniProt Q6VAB4 1-458, looked up, variant F41L E229A E231A F265L P272A)
UDP-glycosyltransferase 76G1: B1 UDP-glycosyltransferase 76G1 with F41L, D224E, E229A, E231A, F265L, P272A, I284T, I366V, L373I, G393K

Test: Sensory characteristics of rebaudioside I compared to rebaudioside M (taste panel)
Assay type: in vivo
Settings: 400 ppm in water, approximately 4° C., seven panelists
Method: Rebaudioside I was evaluated to determine its sensory profile, including in comparison to rebaudioside M.
Samples were prepared at a concentration of 400 ppm in a water matrix. Analysis to determine the actual concentration of the samples was preformed.
Seven panelists participated in testing of rebaudioside I and rebaudioside M. Samples were served at approximately 4° C. Panelists were instructed to take 1 sip of the sample (10 mL), hold in mouth for 5 seconds, expectorate and rate the taste attributes, as described below. A 5 minute break was placed between each sample and panelist were instructed to cleanse their palates with at least 1 bite of an unsalted cracker and 2 sips of filtered water. Samples were randomized and each sample was present in replicate in the session.
Attributes evaluated included: sweet taste intensity (maximum level of sweeteness in mouth during 5 seconds); bitter taste intensity (maximum level of bitterness in mouth during 5 seconds); overall maximum sweet intensity (maximum sweet intensity experienced from time sip is taken up to 1 minute); overall maximum bitter intensity (maximum bitter intensity experienced from time sip is taken up to 1 minute); other intensity (intensity of any taste, aromatic or mouth feel other than sweet and bitter (e.g., metallic, plastic, licorice, etc.); sweet linger intensity (sweet intensity 1 minute after expectoring the sample); and bitter aftertaste intensity (bitter intensity one minute after expectoring the sample).
Fishers LSD was used to compare significant differences between the mean scores.

Molecule	Bitter Aftertaste Intensity	Bitter Taste Intensity	Other Intensity	Overall Max Bitterness Intensity	Overall Max Sweetness Intensity	Sweet Linger Intensity	Sweet Taste Intensity
C=C1C[C@@]23CC[C@H]4[C@@](C)(CCC[C@@]4(C)C(=O)O[C@@H]4O[C@H](CO)[C@@H](O)[C@H](O[C@@H]5O[C@H](CO)[C@@H](O)[C@H](O)[C@H]5O)[C@H]4O[C@@H]4O[C@H](CO)[C@@H](O)[C@H](O)[C@H]4O)[C@@H]2CC[C@]1(O[C@@H]1O[C@H](CO)[C@@H](O)[C@H](O[C@@H]2O[C@H](CO)[C@@H](O)[C@H](O)[C@H]2O)[C@H]1O[C@@H]1O[C@H](CO)[C@@H](O)[C@H](O)[C@H]1O)C3 [Reb M, Rebaudioside M, reference compound]	0.8	1.0	0.9	1.6	8.0	4.9	7.4

Test: Directed evolution of UGT76G1, conversion of Rebaudioside D to Rebaudioside M (round 1)
Assay type: biochemical
Settings: 0.5 mM Rebaudioside D, 2.5 mM UDP-Glucose, 100 μL fresh lysate, 30° C., pH 7.2
Procedure, shortened: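 Conversion to Reb M and initial rate were measured by HPLC with CAD at 2, 4, 7 and 24 h, with reactions run at 30° C in 50 mM phosphate pH 7.2 containing 0.5 mM Reb D, 2.5 mM UDP-glucose and 3 mM MgCl2. Enzyme source: fresh lysates of E. coli BL21(DE3) expressing 3-5-mutation UGT76G1 variants.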

Molecule	Conversion Reb D to Reb M after 24 h (%)	initial rate (Reb M area/min)
B1	8.5	3.8E+06
B2	−1.3	−1.7E+05
B3	0.5	1.8E+06
B4	35.7	2.1E+07
B5	0.5	4.3E+04
B6	1.0	2.1E+05
B7	15.0	6.5E+06
B8	0.2	−6.0E+04
B9	1.8	4.0E+05
B10	1.1	2.5E+05
B11	1.6	3.6E+05
B12	1.8	4.5E+05
B13	1.6	3.8E+05
B14	1.2	2.3E+05
B15	1.2	2.3E+05
B16	1.2	2.7E+05
B17	34.5	1.9E+07
B18	1.6	3.8E+05
B19	1.2	2.1E+05
